Laboratory results published in the supplement of paper PMC10567573.

B1: RAB40B (parent)
chain: YSLTTSSTHKRSSLRKVKLVRPPQ
B2: SLC35F2 (parent)
chain: QYLAERYKVNTPMLQSFINYCLLF

Variants of: B1
Test: protein stability index of a GFP-peptide fusion (GPS, HEK-293T) (PSI 1-6); higher = more stable
Details: c terminus: a fixed tail appended
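Further: lentivirally expressed fusions sorted by FACS into six bins by GFP to DsRed ratio, PSI derived from sequencing read proportions per bin multiplied by bin number.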

Protein stability index: each site, then its substitutions
S12: G 3.36; V 2.57; W 2.23; Y 2.85; Q 3.71; E 3.07; C 2.41; D 3.71; H 3.16; K 3.83; N 3.16; P 3.15; T 3.07; F 2.17; R 3.32; A 2.97; M 2.63; L 2.33; I 2.36
T4: L 3.26; H 2.81; N 3.31; E 3.52; P 3.16; V 2.7; Q 3.82; W 1.35; I 2.53; M 2.55; C 2.48; F 1.77; Y 2.17; R 3.33; S 3.38; A 3.06; G 3.33; D 3.85; K 3.33
S6: T 3.29; W 2.17; R 2.96; H 3.42; Y 2.48; P 2.63; D 3.05; Q 2.92; V 2.83; E 3.57; G 3.34; A 2.88; K 3.33; C 2.95; F 2.38; I 2.58; N 2.77; M 2.62; L 2.93
R11: Y 2.51; S 2.77; K 3.17; W 1.87; F 2.32; A 3.68; M 2.99; G 2.83; T 3.67; C 2.59; Q 3.46; V 2.52; L 2.3; N 2.87; E 3.33; P 2.75; I 2.46; D 3.4; H 3.15
S2: V 2.38; K 2.95; D 3.75; W 1.64; G 3.06; P 2.74; E 3.12; L 2.48; H 2.09; N 2.96; I 1.98; T 2.81; M 2.81; R 3.56; Y 1.93; C 2.3; A 2.44; Q 2.74; F 1.82
Y1: V 2.74; E 4.12; S 4.16; H 3.46; W 3.19; P 3.97; K 3.61; A 3.99; D 4.11; F 2.81; G 3.75; M 3.2; R 3.94; C 3.16; T 3.66; L 3.15; N 4.04; Q 3.82; I 3.15
H9: V 2.65; I 2.61; C 2.72; T 3.32; L 3.26; R 3.29; K 3.29; Y 2.38; G 3.23; N 3.11; Q 3.62; S 3.42; A 2.75; P 3.08; E 2.72; W 1.82; D 3.22; M 2.52; F 2.91
S7: D 2.94; R 2.62; Y 2.35; W 2.24; G 3.23; L 2.81; F 2.27; I 2.6; Q 2.9; K 3.11; A 2.84; T 2.81; C 2.92; E 3.34; N 2.98; P 3.47; V 2.7; H 3.07; M 2.42
T5: H 2.81; N 3.83; E 3.62; M 2.97; G 3.25; Y 2.53; D 3.4; L 2.91; I 1.86; C 2.62; W 1.45; Q 3.44; P 3.05; S 3.07; F 2.05; K 3.2; A 3.48; V 2.79; R 3.43
T8: Y 3; G 3.71; H 2.76; R 2.57; C 2.8; L 2.43; I 2.63; S 2.89; A 2.82; K 3.02; F 2.63; Q 3.26; M 2.98; D 3.32; N 3.4; V 2.53; P 3.38; E 3.51; W 2.49
L3: H 3.06; A 3.88; G 3.18; F 2.57; Y 2.24; T 3.08; V 3.17; K 3.43; N 3.3; S 3.13; R 3.34; M 2.97; W 2.02; I 2.88; D 3.7; C 3; E 3.94; P 2.96; Q 3.31
K10: A 3.14; N 2.85; F 2.62; Y 3.05; P 2.92; T 2.43; V 2.55; I 2.02; L 2.81; S 3.02; C 2.3; W 1.89; M 3.3; Q 2.3; D 3.23; R 3.18; H 2.68; E 3.67; G 3.21

Variants of: B2
Test: as above
Details: c terminus: a fixed tail appended

Protein stability index, by site and new letter:
F24: G 2.48; S 1.81; P 3.94; L 2.95; C 1.99; K 1.98; Y 3.33; E 2.28; M 3.6; D 2.21; H 2.13; N 2.58; W 2.19; R 2.88; T 2.69; I 3.21; Q 3.26; V 3.47
C21: Q 2.3; K 3.46; P 2.55; L 2.52; T 2.11; D 2.36; Y 3.61; A 3.53; R 2.05; V 1.62; W 2.44; G 2.33; S 2.67; H 2.29; F 1.99; E 1.65; N 2.96; I 2.06; M 2.52
N19: L 1.71; P 2.7; K 2.56; H 2.18; W 2.94; Q 3.31; S 2.38; T 2.51; I 1.48; M 2.08; Y 2.31; V 2.75; R 2.35; G 2.7
Y20: H 2.97; S 2.3; E 2.09; T 2.27; L 2.94; A 3.18; C 2.64; F 3.1; V 2.78; N 2.41; M 2.09; G 2.35; R 2.47; D 1.81; W 2.03; Q 2.56; I 2.62; P 2.17; K 2.5
L22: Q 2.44; E 3.47; Y 3.57; C 1.89; R 2.03; H 3.33; M 2.85; N 2.29; S 2.21; I 3.04; V 3.01; D 2.05; P 1.82; A 1.57; F 3.25; G 2.23; K 2.83; T 2.29
L23: C 1.69; S 2.08; D 2.96; N 2.59; G 1.91; Y 2.86; M 2.7; H 1.81; W 2.47; E 1.78; R 2.46; Q 1.3; I 3.19; K 1.64; A 2.27; T 1.94; F 2.96; P 1.63
